Tests used:
Cinpanemab (BIIB-054) = test: SPR
[1] = biological target: Full length, human α-synuclein, recombinant monomer (Homo sapiens (Human).) (UniProt P37840); test: microfluidic diffusional sizing
[2] = biological target: human α-syn oligomers (ND Biosciences) (Homo sapiens (Human).) (UniProt P37840); test: microfluidic diffusional sizing
[3] = biological target: α-syn aggregates of MSA patient brain (Homo sapiens (Human).) (UniProt P37840); test: ELISA
[4] = biological target: α-syn aggregates of PD patient brain (Homo sapiens (Human).) (UniProt P37840); test: ELISA

Substance: Full length, human α-synuclein, recombinant monomer (from UniProt P37840 1-140) (natural protein)
- Kd (Cinpanemab (BIIB-054)): > 100 nM

Substance: Lu AF82422 (amlenetug), monospecific wild type human IgG1 (antibody)
- Kd [1]: 12 nM
- Kd [2]: 0.3 nM
- EC50 [3]: 0.09 nM
- EC50 [4]: 0.16 nM

Reference: publication PMC12098740
